Results from patent US20030114377A1.

How the values were obtained:
[1] = target: soluble CD14 DPRQY deletion mutant (residues 59-63 of SEQ ID NO: 1 deleted) (human) (UniProt P08571); experiment: ELISA, mutant CD14 coated, biotinylated mAb; grade = OD as % of wild-type CD14 (++++ >90%)
[2] = target: soluble CD14 DDED deletion mutant (residues 9-12 of SEQ ID NO: 1 deleted) (human) (UniProt P08571); experiment: as above
[3] = target: soluble CD14 DDED/PQPD double deletion mutant (residues 9-12 and 22-25 of SEQ ID NO: 1 deleted) (human) (UniProt P08571); experiment: as above
[4] = target: soluble CD14 PQPD deletion mutant (residues 22-25 of SEQ ID NO: 1 deleted) (human) (UniProt P08571); experiment: ELISA, mutant CD14 coated, biotinylated mAb; grade = OD as % of wild-type CD14 (+++ 76-90%)
[5] = target: soluble CD14 AVEVE deletion mutant (residues 35-39 of SEQ ID NO: 1 deleted) (human) (UniProt P08571); experiment: ELISA, mutant CD14 coated, biotinylated mAb; grade = OD as % of wild-type CD14 (++ 51-75%)
[6] = target: soluble CD14 DPRQY deletion mutant (residues 59-63 of SEQ ID NO: 1 deleted) (human) (UniProt P08571); experiment: as above
[7] = target: soluble CD14 DDED deletion mutant (residues 9-12 of SEQ ID NO: 1 deleted) (human) (UniProt P08571); experiment: ELISA, mutant CD14 coated, biotinylated mAb; grade = OD as % of wild-type CD14 (+++ 76-90%)
[8] = target: soluble CD14 DDED/PQPD double deletion mutant (residues 9-12 and 22-25 of SEQ ID NO: 1 deleted) (human) (UniProt P08571); experiment: as above
[9] = target: soluble CD14 PQPD deletion mutant (residues 22-25 of SEQ ID NO: 1 deleted) (human) (UniProt P08571); experiment: ELISA, mutant CD14 coated, biotinylated mAb; grade = OD as % of wild-type CD14 (+ 11-50%)
[10] = target: soluble CD14 DDED deletion mutant (residues 9-12 of SEQ ID NO: 1 deleted) (human) (UniProt P08571); experiment: as above

Substance | OD405 as percent of wild-type CD14 OD [1] [%] | OD405 as percent of wild-type CD14 OD [4] [%] | OD405 as percent of wild-type CD14 OD [5] [%] | other results
anti-CD14 monoclonal antibody MY4 | > 90 |  |  | 
anti-CD14 monoclonal antibody MO-2 |  |  |  | OD405 as percent of wild-type CD14 OD [6]: 51 to 75%

The next lines start with results.

OD405 as percent of wild-type CD14 OD [1] [%] | OD405 as percent of wild-type CD14 OD [4] [%] | OD405 as percent of wild-type CD14 OD [5] [%] | Substance | other results
> 90 | 76 to 90 | 51 to 75 | anti-CD14 monoclonal antibody 63D3 | OD405 as percent of wild-type CD14 OD [2]: > 90%; OD405 as percent of wild-type CD14 OD [3]: > 90%
 | 76 to 90 | 51 to 75 | anti-CD14 monoclonal antibody MEM-18 | OD405 as percent of wild-type CD14 OD [7]: 76 to 90%; OD405 as percent of wild-type CD14 OD [8]: 76 to 90%
> 90 |  |  | anti-CD14 monoclonal antibody UCHM-1 | OD405 as percent of wild-type CD14 OD [9]: 11 to 50%; OD405 as percent of wild-type CD14 OD [10]: 11 to 50%
